Reference: PMC10218266, “Unveiling CD59-Antibody Interactions to Design Paratope-Mimicking Peptides for Complement Modulation” (International Journal of Molecular Sciences, 2023)
Each block holds one molecule with its values, some of them ahead of it. Starred links: 1 amine or outer side, 2 acyl side, 3 side chain; linkers in the order of their positions; H or OH if unused. Positions of bridges follow the written chain, without caps; N, C: chain ends. Residues, ends and D or L forms follow the SMILES beside them. TBMB = c1c(C[*:1])cc(C[*:3])cc1C[*:2]

Assays:
recombinant human CD59 [1] = target: T1, recombinant human CD59 (Homo sapiens, UniProt P13987); assay: Biolayer Interferometry (BLI) direct binding assay; details: for kon / koff: CD59 on AR2G sensor, Kinetic Buffer, 1:1 fit; for kon: read-out: ka; for koff: read-out: kdis
T1 construct: purchased Abcam ab134887
T1 sequence (P13987 26-128): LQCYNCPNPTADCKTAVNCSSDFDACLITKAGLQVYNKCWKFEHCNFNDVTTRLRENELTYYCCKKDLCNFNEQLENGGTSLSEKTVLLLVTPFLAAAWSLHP
Procedure: (§1) The bicyclic peptides were tested for their ability to bind to recombinant human CD59. Direct binding assays were performed both using Surface Plasmon Resonance (SPR) and Biolayer Interferometry (BLI) label-free techniques (Figure 5). In both cases, after immobilisation of the protein on the sensor chips, the peptides were tested at increasing concentrations between 2.5 µM and 50 µM. […] Binding experiments were next repeated using BLI to confirm the recognition.
The BLI technique was used to assess the binding of the peptides towards the human recombinant CD59 protein (Abcam code ab134887). The protein was efficiently immobilized at 15 μg/mL in 10 mM NaAc at pH 4.5 on a AR2G sensor chip (Sartorius) according to the manufacturer’s instructions. An unmodified sensor chip was used as blank. The peptides were tested at increasing concentrations from 5 µM to 50 µM dissolved in Kinetic Buffer (PBS containing 0.02% Tween20, 0.1% BSA, 0.05% sodium azide) and using the same running buffer. All analyses were carried out at 25 °C; 10 mM NaOH was used to regenerate the chip surface. All mathematical manipulations were performed using the Octet Analysis Studio 12.2 software from Sartorius. Data were fitted assuming a 1:1 Langmuir binding model determining the KDs by the global analysis mode. Binding curves were exported and charted using GraphPad software, vers. 5.

recombinant human CD59 [2] = target: T1, recombinant human CD59; assay: Surface Plasmon Resonance (SPR) direct binding assay; details: for kon: CD59 on CM5 chip, HBS-EP, 25 °C, 1:1 fit, average over tested peptide concentrations, read-out: ka
Procedure: as §1
Assessment of binding kinetics and affinity between pm59 peptides and CD59 was performed at 25 °C using standard protocols on a BIACORE 3000 system (GE Healthcare, Little Chalfont, UK) with a research-grade CM5 (Carboxymethyl dextran) sensor chip and using commercial CD59 (ab134887) obtained from Abcam (Cambridge, UK). After chip preparation according to the manufacturer’s guidelines and surface activation, CD59 was immobilised onto the chip at a density of 4000 RU (0.5 mg/mL in 10 μL/min) on a NaAc buffer at pH 4.5. Bovine serum albumin (BSA) was immobilised on flow cell 2 to serve as reference. All surfaces were blocked with a 7′ injection of 1 M ethanolamine at pH 8.5.
The bicyclic acetylated CD59-targeting peptides were diluted in HBS-EP buffer (GE Healthcare, Little Chalfont, UK) and injected over the flow cells at a flow rate of 30 μL/min and concentrations ranging from 1 μM to 30 μM. Association of the complexes was allowed for 120 s and dissociation for 240 s. Regeneration of the surfaces was obtained by the sequential injection of 5 mM NaOH pulses (10 μL/min) until the established baseline was reached. Kinetics and binding data were fitted to a 1:1 stoichiometric interaction model using the global data analysis of the BIAevaluation software (GE Healthcare, Little Chalfont, UK) and Graphpad (Graphpad software, San Diego, CA, USA).

[3] = target: T2, human recombinant CD59 protein (human, UniProt P13987 26-99); assay: BLI; CD59 immobilised at 15 μg/mL in 10 mM NaAc pH 4.5 on an AR2G sensor; peptides 5 µM to 50 µM in Kinetic Buffer (PBS, 0.02% Tween20, 0.1% BSA, 0.05% sodium azide), 25 °C; 1:1 Langmuir model; details: both partners purified
T2 construct: CD59, human, recombinant commercial product (Abcam ab134887); also called commercial CD59 (ab134887); source: bought: Abcam (ab134887), recombinant
T2 sequence: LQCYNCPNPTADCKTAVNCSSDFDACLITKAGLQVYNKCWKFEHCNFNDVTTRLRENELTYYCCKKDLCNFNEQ

[4] = target: T2, human recombinant CD59 protein; assay: SPR; CD59 immobilised on a CM5 chip (4000 RU, NaAc buffer pH 4.5), BSA on the reference flow cell; peptides in HBS-EP injected at 30 μL/min, 25 °C, BIACORE 3000; 1:1 Langmuir model; details: both partners purified
[5] = 25 °C, average over tested peptide concentrations

kon (recombinant human CD59 [1]; [5]): 463 M⁻¹ s⁻¹
koff (recombinant human CD59 [1]; [5]): 0.00268 s⁻¹
kon (recombinant human CD59 [2]): 2930 M⁻¹ s⁻¹
Molecule: CC(=O)N[C@H]1CSCc2cc3cc(c2)CSC[C@H](NC(=O)[C@H](CC(C)C)NC(=O)[C@H](Cc2ccc(O)cc2)NC(=O)[C@H](CCCCN)NC(=O)[C@H](CC(N)=O)NC1=O)C(=O)N[C@@H](CCC(N)=O)C(=O)N[C@@H](Cc1ccc(O)cc1)C(=O)N[C@@H](Cc1ccc(O)cc1)C(=O)N[C@@H](CO)C(=O)N[C@@H]([C@@H](C)O)C(=O)N[C@H](C(N)=O)CSC3 [pm59sh] (Ac-CNKYLCQYYSTC-NH2; linker 1-6-12 via TBMB)

kon (recombinant human CD59 [1]; [5]): 919 M⁻¹ s⁻¹
koff (recombinant human CD59 [1]; [5]): 0.00333 s⁻¹
Kd (recombinant human CD59 [1]; OCTET R8, CD59 immobilised on AR2G sensor, Kinetic Buffer (PBS, 0.02% Tween20, 0.1% BSA, 0.05% sodium azide), 25 °C, 1:1 Langmuir fit, average over tested peptide concentrations): 4.39 µM
kon (recombinant human CD59 [2]): 2930 M⁻¹ s⁻¹
Molecule: CC(=O)N[C@H]1CSCc2cc3cc(c2)CSC[C@H](NC(=O)[C@H](CC(C)C)NC(=O)[C@H](Cc2ccc(O)cc2)NC(=O)[C@H](CCCCN)NC(=O)[C@H](CC(N)=O)NC(=O)[C@H](CC(N)=O)NC1=O)C(=O)N[C@@H](CCC(N)=O)C(=O)N[C@@H](Cc1ccc(O)cc1)C(=O)N[C@@H](Cc1ccc(O)cc1)C(=O)N[C@@H](CO)C(=O)N[C@@H]([C@@H](C)O)C(=O)N1CCC[C@H]1C(=O)N[C@H](C(N)=O)CSC3 [pm59md] (Ac-CNNKYLCQYYSTPC-NH2; linker 1-7-14 via TBMB)

binding to CD59 (in words) (recombinant human CD59 [1]; immobilised CD59, peptide at increasing concentrations between 2.5 µM and 50 µM (Figure 5F)): No significant binding
binding to CD59 (in words) (recombinant human CD59 [2]; immobilised CD59, peptide at increasing concentrations between 2.5 µM and 50 µM (Figure 5E)): No significant binding
Molecule: Ac-CNNKYLACQQYYSTPC-NH2 (also: bicyclic or more (positions not given here)) [pm59ln, long bicyclic paratope-mimicking peptide of MB59 VL CDR1/CDR3, three cysteines linked by TBMB, N-acetylated, C-amidated]

KD at 5 μM [3]: 0.865 µM
KD at 10 μM [3]: 4.98 µM
KD at 20 μM [3]: 9.92 µM
KD at 30 μM [3]: 8.45 µM
KD at 40 μM [3]: 15 µM
KD at 50 μM [3]: 15.9 µM
Kd [3]: 9.18 µM
ka at 5 μM [3]: 1130 M⁻¹ s⁻¹
ka at 10 μM [3]: 524 M⁻¹ s⁻¹
ka at 20 μM [3]: 294 M⁻¹ s⁻¹
ka at 30 μM [3]: 451 M⁻¹ s⁻¹
ka at 40 μM [3]: 197 M⁻¹ s⁻¹
ka at 50 μM [3]: 178 M⁻¹ s⁻¹
KD at 5 μM [4]: 0.469 µM
KD at 7.5 μM [4]: 1.24 µM
KD at 10 μM [4]: 1.64 µM
KD at 15 μM [4]: 2.39 µM
KD at 20 μM [4]: 2.61 µM
KD at 25 μM [4]: 4.13 µM
KD at 30 μM [4]: 4.46 µM
Kd [4]: 2.42 µM
ka at 5 μM [4]: 7260 M⁻¹ s⁻¹
ka at 7.5 μM [4]: 4210 M⁻¹ s⁻¹
ka at 10 μM [4]: 3010 M⁻¹ s⁻¹
ka at 15 μM [4]: 2050 M⁻¹ s⁻¹
ka at 20 μM [4]: 1560 M⁻¹ s⁻¹
ka at 25 μM [4]: 1160 M⁻¹ s⁻¹
ka at 30 μM [4]: 1230 M⁻¹ s⁻¹
kd at 5 μM [4]: 0.0034 s⁻¹
kd at 7.5 μM [4]: 0.00523 s⁻¹
kd at 10 μM [4]: 0.00493 s⁻¹
kd at 15 μM [4]: 0.0049 s⁻¹
kd at 20 μM [4]: 0.00408 s⁻¹
kd at 25 μM [4]: 0.00481 s⁻¹
kd at 30 μM [4]: 0.00548 s⁻¹
koff [4]: 0.00469 s⁻¹
B1: pm59sh, bicyclic paratope-mimicking peptide (short version) (peptide)
peptide: Ac-CNKYLCQYYSTC-NH2
modifications: linker 1-6-12 via TBMB
SMILES: CC(=O)N[C@H]1CSCc2cc3cc(c2)CSC[C@H](NC(=O)[C@H](CC(C)C)NC(=O)[C@H](Cc2ccc(O)cc2)NC(=O)[C@H](CCCCN)NC(=O)[C@H](CC(N)=O)NC1=O)C(=O)N[C@@H](CCC(N)=O)C(=O)N[C@@H](Cc1ccc(O)cc1)C(=O)N[C@@H](Cc1ccc(O)cc1)C(=O)N[C@@H](CO)C(=O)N[C@@H]([C@@H](C)O)C(=O)N[C@H](C(N)=O)CSC3
notes: designed from key residues of the CDR1 and CDR3 loops of the VL chain of the scFv MB59, flanking residues changed to cysteines; also called short version of pm59; source: synthetic peptide (Fmoc solid phase, bi-cyclised with TBMB, RP-HPLC purified)

KD at 10 μM [3]: 1.23 µM
KD at 20 μM [3]: 4.12 µM
KD at 25 μM [3]: 6.52 µM
KD at 30 μM [3]: 6.09 µM
KD at 40 μM [3]: 8.38 µM
ka at 5 μM [3]: 963 M⁻¹ s⁻¹
ka at 10 μM [3]: 1560 M⁻¹ s⁻¹
ka at 20 μM [3]: 889 M⁻¹ s⁻¹
ka at 25 μM [3]: 783 M⁻¹ s⁻¹
ka at 30 μM [3]: 750 M⁻¹ s⁻¹
ka at 40 μM [3]: 564 M⁻¹ s⁻¹
KD at 2.5 μM [4]: 1.38 µM
KD at 5 μM [4]: 0.902 µM
KD at 10 μM [4]: 1.09 µM
KD at 20 μM [4]: 3.1 µM
KD at 30 μM [4]: 4.39 µM
KD at 40 μM [4]: 3.88 µM
KD at 50 μM [4]: 4.9 µM
Kd [4]: 3.13 µM
ka at 2.5 μM [4]: 5960 M⁻¹ s⁻¹
ka at 5 μM [4]: 7080 M⁻¹ s⁻¹
ka at 10 μM [4]: 4830 M⁻¹ s⁻¹
ka at 20 μM [4]: 2290 M⁻¹ s⁻¹
ka at 30 μM [4]: 1270 M⁻¹ s⁻¹
ka at 40 μM [4]: 1320 M⁻¹ s⁻¹
ka at 50 μM [4]: 980 M⁻¹ s⁻¹
kd at 2.5 μM [4]: 0.00814 s⁻¹
kd at 5 μM [4]: 0.00638 s⁻¹
kd at 10 μM [4]: 0.00526 s⁻¹
kd at 20 μM [4]: 0.0071 s⁻¹
kd at 30 μM [4]: 0.00627 s⁻¹
kd at 40 μM [4]: 0.00511 s⁻¹
kd at 50 μM [4]: 0.0048 s⁻¹
koff [4]: 0.00582 s⁻¹
B2: pm59md, bicyclic paratope-mimicking peptide (medium version) (peptide)
peptide: Ac-CNNKYLCQYYSTPC-NH2
modifications: linker 1-7-14 via TBMB
SMILES: CC(=O)N[C@H]1CSCc2cc3cc(c2)CSC[C@H](NC(=O)[C@H](CC(C)C)NC(=O)[C@H](Cc2ccc(O)cc2)NC(=O)[C@H](CCCCN)NC(=O)[C@H](CC(N)=O)NC(=O)[C@H](CC(N)=O)NC1=O)C(=O)N[C@@H](CCC(N)=O)C(=O)N[C@@H](Cc1ccc(O)cc1)C(=O)N[C@@H](Cc1ccc(O)cc1)C(=O)N[C@@H](CO)C(=O)N[C@@H]([C@@H](C)O)C(=O)N1CCC[C@H]1C(=O)N[C@H](C(N)=O)CSC3
notes: designed from key residues of the CDR1 and CDR3 loops of the VL chain of the scFv MB59, flanking residues changed to cysteines; also called medium version of pm59; source: synthetic peptide (Fmoc solid phase, bi-cyclised with TBMB, RP-HPLC purified)
